In publication PMC4497383:

Biological target: 3xFLAG-tagged nascent chain of Sec61β with the transferrin receptor TMD, truncated at position 128 (TMD exposed)
Assay: co-IP; unbound fractions of the translation reactions after anti-FLAG purification of the RNCs, immunoblotted relative to serial dilutions of total lysate (depletion)

SRP54 subunit of the signal recognition particle (SRP) (from UniProt G1STX4 1-499) (natural protein)
percent of SRP in the lysate depleted: 90%
